B1: PTPN9 (parent)
chain: ILFSLPPALDWDSVHVPGPHAMTI
B2: ZNF207 (parent)
chain: FQPQPVQPQQGYIPPMAQPGLPPV

Variants of: B1
Experiment: protein stability index of a GFP-peptide fusion (GPS, HEK-293T) (PSI 1-6); higher = more stable
Conditions: c terminus: a fixed tail appended
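Further: lentivirally expressed fusions sorted by FACS into six bins by GFP to DsRed ratio, PSI derived from sequencing read proportions per bin multiplied by bin number.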

Protein stability index, by site and new letter:
D10: E 1.63; I 2.2; T 2.95
I1: D 2.17; H 1.56; Y 2.41; C 1.64; R 2.17; W 1.93; L 1.85
P17: N 2.71; F 3.17; S 2.82
V16: L 2.68; H 2.2
L2: T 2.62; G 1.68; H 2.3
P7: F 3.57; R 2.18; Q 2.33
P19: Q 2.55; Y 3.1; V 3.51; I 2.37; F 3.89
F3: L 4.01; R 2.25; Q 3.1
H20: S 2.48; C 2.58; M 2.88; G 2.69
D12: N 2.5; S 3.29
V14: N 2.41
W11: T 2.23; G 2.23; Q 2.27
A8: N 2.04; D 1.92; F 3.41
H15: Y 3.15; D 2.08
L5: E 1.47; S 2.25; W 2; T 2.99; K 2.25; C 2.26
S13: Y 3.24; L 2.65; T 2.42
S4: E 1.75; N 2.5; L 2.55
P6: C 2.37; R 3.66; G 1.32; F 1.95; I 3.44; A 3.2
T23: D 2.6; I 2.96; L 1.76; G 3.89
I24: C 2.43; E 1.69; W 3.21; N 1.71
L9: S 3.08; N 2.8; T 3.24
A21: I 3.19; E 2.64; C 3.09; L 2.86
M22: P 1.77; E 2.55; H 1.24

Variants of: B2
Experiment: as above
Conditions: c terminus: a fixed tail appended

Protein stability index: each site, then its substitutions
M16: E 3.54; S 3.5; I 3.3; K 3.21; R 2.97; G 3.49; C 3.08; W 2.06; V 3.64
P5: Q 2.99; N 2.8; M 2.61; R 2.58; F 2.33; C 2.29; L 2.88; W 1.62; Y 2.59; V 2.57; E 3.62; G 3.45; S 3.18; K 3.17
Q4: V 3.12; E 3.58; W 1.81; R 2.78; G 2.71; M 2.72; Y 1.83; K 2.92; C 3.01; F 2.42
Q7: L 3.04; D 3.26; E 2.98; Y 2.5; W 2.25; H 2.82; K 3.04; R 2.83; C 2.88; V 3.63
G20: V 3.72; E 3.23; Q 3.46; R 3.33; W 1.7; D 2.89; L 3.15; S 3.24; C 2.93; K 2.27
P15: D 3.04; K 2.81; F 2.3; I 2.17; H 2.74; Y 2.66; Q 3.09; C 2.45; E 2.96; T 3.14; N 3.45; S 2.87
P14: V 2.9; C 2.61; R 2.81; I 2.63; T 2.75; F 2.93; D 3.37; M 2.88; W 1.98; L 2.52; K 2.83; G 2.79; E 2.86; Q 2.74; H 2.75
I13: D 3.57; E 3.71; C 3.33; R 3.16; K 2.85; S 3.58; G 3.29; Y 2.88; W 2.56; F 3.4; N 3.17
Q2: F 3.18; L 3.49; N 3.66; S 3.16; I 1.9; D 4.03; K 3.54; W 2.54; G 3.61
P23: A 3.4; M 2.9; I 2.65; D 3.28; R 3.02; C 2.91; G 2.27; L 3.04; F 1.88; N 2.69; Y 2.42; K 2.95; V 3.13; E 3.07
L21: K 3.48; G 3.24; V 2.73; M 3.68; C 3.64
V6: N 2.86; R 2.92; Y 2.75; K 3.08; L 3.06; E 3.61; D 3.26; S 3.19
Q18: L 2.91; C 2.37; S 2.95; M 2.7; N 3.11
Y12: P 3.6; R 3.66; T 3.69; H 3.54; K 3.7; G 3.53; D 3.73; Q 4.03; W 2.6; A 3.75; I 3.29; V 3.86; M 3.72; F 2.81; C 3.55; S 3.81
F1: H 4.06; R 4; C 3.07; D 4.47; M 3.9; K 4.37; Y 3.61; V 3.91; L 4.03
A17: D 3.35; Q 3.39; C 3.27; M 3.4; R 3.15; L 2.85; Y 2.25; V 2.96; T 3.22; K 3.04; H 3.12
P22: M 2.4; F 2.54; W 1.85; C 2.38; A 3.37; Q 3.33; E 3.08; Y 2.29; V 2.72; S 2.13; R 2.88; G 2.74; I 2.68; T 2.7
V24: I 3.26; E 3.75; D 3.9; W 1.8; S 2.93; C 2.95; Y 2.4; N 2.67; R 3.38; G 3.1
Q9: G 2.74; S 3.43; D 3.59; V 3.61; A 3.35; C 2.77; L 2.54; K 2.91
P19: A 3.32; G 3.12
P8: E 3.22; C 2.54; N 3.03; I 3.1; D 3.32; S 2.97; M 2.47; T 2.91; W 2.31; A 3.27; V 2.92; Y 2.53; K 3.15; G 2.96; L 3.19
G11: N 2.93; W 2.19; C 2.18; I 2.29; K 2.89; Q 3.18; V 2.56; S 2.8; E 3.69; D 3.63; M 2.66; L 2.65; Y 2.18; F 2.45
P3: N 3.55; R 3.25; K 3.04; C 3.47; E 3.94; W 2.26; I 2.67; Q 3.31; L 3.2; A 3.48
Q10: K 2.98; W 1.95; R 2.79; I 2.12; H 2.62; L 2.16; M 2.81; C 2.5; S 2.86; N 3.28; G 3.39; V 2.04; T 3.34

From the supplement of paper PMC10567573
